Measurements as given in patent US20130202618A1 (PROGENICS PHARMACEUTICALS, published 2013).

Tests used:
Assay in all cases: cell-based or functional assay
[1] = biological target: T1, C. difficile toxin A from strain Pitt 45 (ribotype 027, BI/NAP1/027) (Clostridium difficile strain Pitt 45)
[2] = biological target: T2, C. difficile toxin A from strain Montreal 5 (ribotype 027, BI/NAP1/027) (Clostridium difficile strain Montreal 5)
[3] = biological target: T3, C. difficile toxin A from strain CCL678 (ribotype 027, BI/NAP1/027) (Clostridium difficile strain CCL678)
[4] = biological target: T4, C. difficile toxin A from strain CD196 (ribotype 027, BI/NAP1/027) (Clostridium difficile strain CD196)
[5] = biological target: C. difficile toxin A from strain UVA30/TL42 (ribotype 014) (Clostridium difficile strain UVA30/TL42)
[6] = biological target: T5, C. difficile toxin A from strain HMC553 (ribotype 027, BI/NAP1/027) (Clostridium difficile strain HMC553)
[7] = biological target: C. difficile toxin A from strain 545 (ATCC 43596, ribotype 012) (Clostridium difficile strain 545 (ATCC …))
[8] = biological target: C. difficile toxin A from strain 630 (ATCC BAA-1382, ribotype 012) (Clostridium difficile strain 630)
[9] = biological target: Clostridium difficile toxin A (strain VPI 10463) (Clostridium difficile strain VPI 10463, UniProt P16154 1-2710)
Chain of Clostridium difficile toxin A (strain VPI 10463) (P16154 whole entry): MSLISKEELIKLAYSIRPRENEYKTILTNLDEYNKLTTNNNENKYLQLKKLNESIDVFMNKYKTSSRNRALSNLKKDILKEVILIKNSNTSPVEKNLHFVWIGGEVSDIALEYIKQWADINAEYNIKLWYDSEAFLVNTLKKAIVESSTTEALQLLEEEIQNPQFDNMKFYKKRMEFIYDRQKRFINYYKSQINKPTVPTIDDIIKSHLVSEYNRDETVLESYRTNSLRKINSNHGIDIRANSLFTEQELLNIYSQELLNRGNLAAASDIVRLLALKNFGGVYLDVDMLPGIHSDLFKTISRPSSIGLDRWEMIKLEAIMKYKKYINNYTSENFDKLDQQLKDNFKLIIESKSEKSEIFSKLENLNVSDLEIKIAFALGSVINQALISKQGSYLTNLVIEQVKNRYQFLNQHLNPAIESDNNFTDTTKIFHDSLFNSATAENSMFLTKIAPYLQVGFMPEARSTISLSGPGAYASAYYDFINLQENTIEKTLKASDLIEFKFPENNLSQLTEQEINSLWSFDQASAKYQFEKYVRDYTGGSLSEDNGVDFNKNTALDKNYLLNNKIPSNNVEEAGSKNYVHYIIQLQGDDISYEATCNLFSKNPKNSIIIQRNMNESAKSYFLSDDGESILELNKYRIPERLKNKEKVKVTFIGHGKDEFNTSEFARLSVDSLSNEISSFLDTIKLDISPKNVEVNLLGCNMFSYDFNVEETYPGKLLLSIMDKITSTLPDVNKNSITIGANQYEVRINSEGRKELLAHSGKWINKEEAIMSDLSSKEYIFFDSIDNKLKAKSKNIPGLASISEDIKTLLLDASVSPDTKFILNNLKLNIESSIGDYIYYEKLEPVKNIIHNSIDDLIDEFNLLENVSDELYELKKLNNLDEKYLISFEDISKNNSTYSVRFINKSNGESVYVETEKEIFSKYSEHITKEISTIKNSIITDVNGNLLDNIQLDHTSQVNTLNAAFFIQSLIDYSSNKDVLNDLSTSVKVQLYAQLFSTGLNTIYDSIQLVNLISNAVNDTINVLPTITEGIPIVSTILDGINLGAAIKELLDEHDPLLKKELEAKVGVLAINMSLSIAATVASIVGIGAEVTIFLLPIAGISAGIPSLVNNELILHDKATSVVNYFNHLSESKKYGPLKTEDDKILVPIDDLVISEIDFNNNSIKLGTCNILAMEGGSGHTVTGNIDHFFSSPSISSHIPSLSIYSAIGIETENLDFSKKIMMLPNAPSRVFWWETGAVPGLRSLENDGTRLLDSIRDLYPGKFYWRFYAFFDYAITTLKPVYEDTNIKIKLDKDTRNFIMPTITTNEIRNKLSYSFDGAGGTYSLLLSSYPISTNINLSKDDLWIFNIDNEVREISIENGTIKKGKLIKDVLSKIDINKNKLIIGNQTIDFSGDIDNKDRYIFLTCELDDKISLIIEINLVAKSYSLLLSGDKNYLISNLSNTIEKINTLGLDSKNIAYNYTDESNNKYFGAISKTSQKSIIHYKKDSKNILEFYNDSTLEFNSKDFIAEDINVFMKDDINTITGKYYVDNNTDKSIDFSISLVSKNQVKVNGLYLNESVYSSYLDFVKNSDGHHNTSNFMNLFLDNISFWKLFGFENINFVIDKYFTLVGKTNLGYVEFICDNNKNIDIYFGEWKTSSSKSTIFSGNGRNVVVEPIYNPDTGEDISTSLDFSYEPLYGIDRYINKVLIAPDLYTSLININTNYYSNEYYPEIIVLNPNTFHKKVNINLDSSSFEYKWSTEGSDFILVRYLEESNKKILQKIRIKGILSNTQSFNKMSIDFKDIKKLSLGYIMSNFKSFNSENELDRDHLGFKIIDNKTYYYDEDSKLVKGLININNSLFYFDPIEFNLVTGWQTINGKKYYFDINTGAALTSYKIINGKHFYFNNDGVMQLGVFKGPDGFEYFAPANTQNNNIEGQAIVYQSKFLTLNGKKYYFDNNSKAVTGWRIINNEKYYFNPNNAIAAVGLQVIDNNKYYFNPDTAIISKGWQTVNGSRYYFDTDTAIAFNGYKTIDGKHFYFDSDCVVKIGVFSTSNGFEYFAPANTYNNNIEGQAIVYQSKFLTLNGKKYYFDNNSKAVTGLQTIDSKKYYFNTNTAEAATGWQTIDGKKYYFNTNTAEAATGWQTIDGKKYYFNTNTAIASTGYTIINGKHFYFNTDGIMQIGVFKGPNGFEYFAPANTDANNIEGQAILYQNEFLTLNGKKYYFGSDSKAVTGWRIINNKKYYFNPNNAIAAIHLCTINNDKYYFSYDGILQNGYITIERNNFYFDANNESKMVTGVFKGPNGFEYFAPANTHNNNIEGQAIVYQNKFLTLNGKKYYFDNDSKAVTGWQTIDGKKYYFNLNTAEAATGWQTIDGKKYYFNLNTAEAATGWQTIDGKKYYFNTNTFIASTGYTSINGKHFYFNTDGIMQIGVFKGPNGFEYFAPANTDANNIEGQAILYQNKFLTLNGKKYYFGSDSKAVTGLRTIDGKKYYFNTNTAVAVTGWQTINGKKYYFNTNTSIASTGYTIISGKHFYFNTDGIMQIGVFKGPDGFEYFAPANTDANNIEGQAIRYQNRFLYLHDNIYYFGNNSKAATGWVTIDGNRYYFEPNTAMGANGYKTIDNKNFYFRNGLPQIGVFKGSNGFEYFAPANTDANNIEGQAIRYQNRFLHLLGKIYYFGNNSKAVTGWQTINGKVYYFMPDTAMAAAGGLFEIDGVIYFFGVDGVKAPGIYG

[10] = biological target: C. difficile toxin A from strain Pitt 2 (ribotype 001) (Clostridium difficile strain Pitt 2)
[11] = biological target: C. difficile toxin A from strain MH5 (ribotype 001) (Clostridium difficile strain MH5)
[12] = biological target: C. difficile toxin A from strain Pitt 07 (ribotype 078) (Clostridium difficile strain Pitt 07)
[13] = biological target: T6, C. difficile toxin A from strain Montreal 7.1 (ribotype 027, BI/NAP1/027) (Clostridium difficile strain Montreal …)
[14] = biological target: C. difficile toxin A from strain CCL14137 (ribotype 001) (Clostridium difficile strain CCL14137)
[15] = biological target: C. difficile toxin A from strain UVA17 (ribotype 002) (Clostridium difficile strain UVA17)
[16] = biological target: T1, C. difficile toxin A from strain Pitt …; remark: listed apart in the source
[17] = biological target: T2, C. difficile toxin A from strain …; remark: listed apart in the source
[18] = biological target: T3, C. difficile toxin A from strain CCL678 …; remark: listed apart in the source
[19] = biological target: T4, C. difficile toxin A from strain CD196 …; remark: listed apart in the source
[20] = biological target: T5, C. difficile toxin A from strain HMC553 …; remark: listed apart in the source
[21] = biological target: T6, C. difficile toxin A from strain …; remark: listed apart in the source
[22] = biological target: T7, Clostridium difficile toxin B (strain VPI 10463) (Clostridium difficile strain VPI 10463, UniProt P18177 2-2366)
T7 sequence (P18177 2-2366): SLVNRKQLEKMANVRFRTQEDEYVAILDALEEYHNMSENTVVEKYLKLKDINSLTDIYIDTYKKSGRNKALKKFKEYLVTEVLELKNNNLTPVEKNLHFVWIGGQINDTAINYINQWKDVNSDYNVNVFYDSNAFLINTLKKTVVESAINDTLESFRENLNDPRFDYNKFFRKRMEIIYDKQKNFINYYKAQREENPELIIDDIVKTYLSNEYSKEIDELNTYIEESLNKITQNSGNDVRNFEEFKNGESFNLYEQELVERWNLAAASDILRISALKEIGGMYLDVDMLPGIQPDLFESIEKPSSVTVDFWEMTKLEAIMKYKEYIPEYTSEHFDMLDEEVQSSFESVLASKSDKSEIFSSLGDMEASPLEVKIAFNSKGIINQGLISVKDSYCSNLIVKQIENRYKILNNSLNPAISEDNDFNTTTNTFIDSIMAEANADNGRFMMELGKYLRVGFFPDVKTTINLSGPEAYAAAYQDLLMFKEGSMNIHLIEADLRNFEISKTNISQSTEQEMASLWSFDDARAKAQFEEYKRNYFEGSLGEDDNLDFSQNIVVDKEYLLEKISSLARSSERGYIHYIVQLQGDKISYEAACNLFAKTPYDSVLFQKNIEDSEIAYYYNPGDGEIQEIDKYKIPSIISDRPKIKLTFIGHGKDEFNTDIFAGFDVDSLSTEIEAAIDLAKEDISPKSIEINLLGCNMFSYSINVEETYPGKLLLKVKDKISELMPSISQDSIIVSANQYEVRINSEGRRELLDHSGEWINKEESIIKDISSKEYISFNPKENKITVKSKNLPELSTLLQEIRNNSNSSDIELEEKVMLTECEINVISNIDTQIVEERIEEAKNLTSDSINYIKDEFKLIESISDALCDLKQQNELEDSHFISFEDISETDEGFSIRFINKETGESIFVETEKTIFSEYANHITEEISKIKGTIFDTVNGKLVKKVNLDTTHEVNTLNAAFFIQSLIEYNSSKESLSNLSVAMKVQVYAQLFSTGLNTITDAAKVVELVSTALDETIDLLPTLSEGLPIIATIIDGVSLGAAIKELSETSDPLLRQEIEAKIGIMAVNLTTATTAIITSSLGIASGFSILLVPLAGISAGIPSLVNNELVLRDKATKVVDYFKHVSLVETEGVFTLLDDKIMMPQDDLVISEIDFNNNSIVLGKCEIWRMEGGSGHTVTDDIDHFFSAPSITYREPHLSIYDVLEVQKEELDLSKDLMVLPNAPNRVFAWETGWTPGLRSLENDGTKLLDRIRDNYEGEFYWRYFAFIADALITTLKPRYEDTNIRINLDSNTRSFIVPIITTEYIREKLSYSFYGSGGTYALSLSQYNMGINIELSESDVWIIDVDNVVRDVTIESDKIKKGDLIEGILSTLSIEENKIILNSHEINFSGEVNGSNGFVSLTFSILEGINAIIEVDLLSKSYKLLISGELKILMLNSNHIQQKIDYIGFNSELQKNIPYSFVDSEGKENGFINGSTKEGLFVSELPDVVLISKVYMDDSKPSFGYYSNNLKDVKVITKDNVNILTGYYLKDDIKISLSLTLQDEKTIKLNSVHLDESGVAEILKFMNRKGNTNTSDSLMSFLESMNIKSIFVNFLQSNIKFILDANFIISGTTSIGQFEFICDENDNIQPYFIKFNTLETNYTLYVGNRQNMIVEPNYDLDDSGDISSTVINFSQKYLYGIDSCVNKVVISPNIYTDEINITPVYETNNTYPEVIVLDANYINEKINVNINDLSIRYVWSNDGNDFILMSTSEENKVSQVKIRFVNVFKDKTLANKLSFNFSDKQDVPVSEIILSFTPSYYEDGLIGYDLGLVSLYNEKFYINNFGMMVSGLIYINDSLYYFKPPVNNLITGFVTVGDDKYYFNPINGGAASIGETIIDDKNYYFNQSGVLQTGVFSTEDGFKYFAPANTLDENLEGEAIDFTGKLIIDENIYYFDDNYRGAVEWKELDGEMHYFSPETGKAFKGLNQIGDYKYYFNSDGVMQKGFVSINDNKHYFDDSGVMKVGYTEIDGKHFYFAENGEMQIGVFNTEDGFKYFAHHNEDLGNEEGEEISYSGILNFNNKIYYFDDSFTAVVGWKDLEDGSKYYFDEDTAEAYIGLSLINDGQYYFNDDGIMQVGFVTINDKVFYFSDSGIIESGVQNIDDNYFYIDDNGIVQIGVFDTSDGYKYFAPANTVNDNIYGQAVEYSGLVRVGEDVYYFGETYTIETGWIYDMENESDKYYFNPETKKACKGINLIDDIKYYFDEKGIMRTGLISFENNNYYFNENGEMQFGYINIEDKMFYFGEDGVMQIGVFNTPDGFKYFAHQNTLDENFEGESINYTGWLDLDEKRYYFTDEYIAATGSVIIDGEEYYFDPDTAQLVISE

[23] = biological target: T7, Clostridium difficile toxin B (strain …); remark: listed apart in the source

B1: humanized anti-C. difficile toxin A monoclonal antibody PA-50 (antibody, V domains shown)
VH: QVQLVQSGAEVKKPGASVKVSCKASGYTFTDYNMDWVRQAPGQRLEWIGDINPKYDIIGHNPKFMGKATITVDKSASTAYMELSSLRSEDTAVYYCARSDRGWYFDVWGQGTLVTVSS
VL: EIVLTQSPATLSLSPGERATLSCRASSSVNYMNWYQQKPGQAPRPRIYATSNLASGVPARFSGSGSGTDYTLTISSLEPEDFAVYYCQQWSSRTFGGGTKLEIKR
In the case of B1, the “EC50, neutralization of supernatant cytotoxicity on T-84 cells” value (“EC50, neutralization … on T-84 cells” for short) [1] is reported as 0.043 nM, the “EC50, neutralization … on T-84 cells” value [2] is reported as 0.029 nM and the “EC50, neutralization … on T-84 cells” value [3] is reported as 0.029 nM. The “EC50, neutralization … on T-84 cells” value [4] was 0.061 nM, the “EC50, neutralization … on T-84 cells” value [5] was 0.051 nM and the “EC50, neutralization … on T-84 cells” value [6] was 0.029 nM. The “EC50, neutralization … on T-84 cells” value [7] was 0.038 nM, the “EC50, neutralization … on T-84 cells” value [8] was 0.054 nM and the “EC50, neutralization … on T-84 cells” value [9] was 0.02 nM. For the same binder, the “EC50, neutralization … on T-84 cells” value [10] was 0.027 nM, the “EC50, neutralization … on T-84 cells” value [11] was 0.127 nM and the “EC50, neutralization … on T-84 cells” value [12] was 0.032 nM. The “EC50, neutralization … on T-84 cells” value [13] was 0.031 nM, the “EC50, neutralization … on T-84 cells” value [14] was 0.039 nM and the “EC50, neutralization … on T-84 cells” value [15] was 0.026 nM. The “neutralization activity on T-84 cells relative to comparator mAb CDA-1” value [16] was > 100 fold, the “neutralization activity on T-84 cells relative to comparator mAb CDA-1” value [17] was > 100 fold and the “neutralization activity on T-84 cells relative to comparator mAb CDA-1” value [18] was > 100 fold. The “neutralization activity on T-84 cells relative to comparator mAb CDA-1” value [19] was > 100 fold, the “neutralization activity on T-84 cells relative to comparator mAb CDA-1” value [20] was > 100 fold and the “neutralization activity on T-84 cells relative to comparator mAb CDA-1” value [21] was > 100 fold.

B2: humanized anti-C. difficile toxin B monoclonal antibody PA-41 (antibody, V domains shown)
VH: QVQLVQSGAEVKKPGASVKVSCKASGYPFTNYFMHWVRQAPGQRLEWIGRINPYNGATSYSLNFRDKATITLDKSASTAYMELSSLRSEDTAVYYCARSTITSPLLDFWGQGTLVTVSS
VL: EIVLTQSPATLSLSPGERATLSCRASQSVGTSIHWYQQKPGQAPRLLIKFASESISGIPARFSGSGSGTDFTLTISSLEPEDFAVYYCQQSNKWPFTFGQGTKLEIKR
In the case of B2, the “EC50, neutralization of supernatant cytotoxicity on CHO-K1 cells” value [22] is reported as 0.0077 nM, the “EC50, neutralization of toxin B cytotoxicity on CHO-K1 cells (toxin B 2 pg/mL)” value [23] is reported as 6000 nM and the “EC50, neutralization on IMR-90 cells” value [23] is reported as 5000 nM.
